This assay addresses T1, PSCA (prostate stem cell antigen), human, PSCA v.1 (human, UniProt O43653 12-83).
T1 construct: whole, on cells; also called PSCA变体1; 人PSCA
T1 sequence (looked up): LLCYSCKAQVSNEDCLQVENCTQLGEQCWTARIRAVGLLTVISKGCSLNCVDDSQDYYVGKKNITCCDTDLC
Kind of assay: FACS titration on SW780 cells, sigmoidal dose-response fit (Graphpad Prism).

The values below come from patent CN1997751A (AGENSYS INC, dated 2007).

One may read the Kd as the free concentration of one partner at which half of the binding sites on the other are occupied at equilibrium, for simple one-to-one binding. Higher therefore signals lower affinity.

B1: Ha1-4.117 (antibody, V domains shown)
VH: QVQLQESGPGLVKPSQTLSLTCTVSGGSISSGGYYWIWIRQHPGKGLEWIGYIYYNGNTYYNPSLKSRVTMSVDTSKNQFSLKLSSVTAADTAVYYCARDGITMIRGYYYGMDVWGQGTTVTVSS
VL: QLTQSPSSVSASVGDRVTITCRASRGISSWLAWYQQKPGKAPKLLIYTASSLQSGVPSRFSGSGSGTDFTLTISSLQPEDFATYYCQQAYSFPRTFGQGTKVEIKR
Take B1: the Kd is 0.32 nM. This counts as sub-nanomolar.

B2: Ha1-5.99 (antibody, IgG2, V domains shown)
VH: QVHLQQWGAGLLKPSETLSLTCAVYGGSFSGYYWSWIRQPPGKGLEWIGEINHSGSTSYKPSLKSRVTVSVDTSKNQFSLKLSYVTAADTAVYYCARDRGDYGDFLFDYWGQGTLVTVSS
VL: SPGERATLSCRASQSIGSTYLAWYQQKPGQAPRLLIYGASSRATGIPERFSGSGSGTDFTLTISGLEPEDFAVFYCQQCGSSPPTFGQGTKVEIKR
notes: ATCC PTA-6703; also called Ha1-5.99.1; HA1-5.99.1
B2 came in with a Kd of 0.28 nM.

B3: Ha1-4.37 (antibody, V domains shown)
VH: PGALQESGPGLVRPSQTLSLTCTVSGGSISSGGTYYWIWIRQHPGKGLEWIGYIYYSGSTYYNPSLKSRVTISVDTSKNQFSLKLSSVTAADTAVYYCARDGITMVRGISGGMDVWGQGTTVTVSS
VL: ASVGDRVTITCRASQSISSHLNWYQQKPGKAPKLLIYAASSLQSGVPSRFSGSGSGTDFTLSISSLQPEDFATYFCQQSYSIPRTFGQGTKVEITR
notes: ATCC PTA-6702
B3: the Kd turned out to be 0.23 nM. This Kd and that of the molecule before are within 1.5-fold of each other.

B4: Ha1-1.16 (antibody, V domains shown)
VH: QVQLQQSGPGLVKPSQTLSLTCAISGDSVSSNSAAWNWIRQSPSRGLEWLGRTYYRSKWYNGYAVSVKSRMTINPDTSKNQFSLQLNSVTPEDTAVYYCARERLGELYGMDVWGQGTTVTVSS
VL: QLTQSPDSLAVSLGERATINCKSSQNILYRSSKKNHLVWYQQKPGQPPKLLIYWASTRESGVPARFSGSGSGTDFTLTISTLQAEDVAVYYCQQYYSTPPTFGQGTRLEIKR
notes: ATCC PTA-6698; also called Ha1-1.16.1
Consider B4, for which the dissociation constant Kd turned out to be 6.91 nM.
